Laboratory results as given in patent US20110171233A1 (RIBOVAX BIOTECHNOLOGIES S A, published 2011).

B1: 8C10 antibody (antibody, V domains shown)
VH: EVQLVQSGAEVKKPGESLKISCKGSGYTFANYWIAWVRQMPGKGLEWMGIIYPGDSDTRYSPSFQGQVTISADKSFHTVYLQWSSLKASDTAIYFCASTSYYDFWSGYHRGREHYYYGMEVWGQGTTVIVSS
VL: TQSPATLSLSPGERVTLSCRASQSVYNYLAWYQQKPGQAPRLLIYDASNRATGIPARFSGSGSGTDFTLTISSLEPEDFAVYYCQLRRGTFGQGTKVEIKR
B2: 37B7 antibody (antibody, V domains shown)
VH: QVQLVQSGGEVKKPGASVKVSCKASGYTFTSSGINWVRQAPGQGLEWMGWINTYNGNTKYAQRLQGRVTMTTDTSTDTAYMELRSLRSDDTAVYYCARDGLNWGWGDYWGQGTLVTVSS
VL: TQSPSTLSASVGDRVIITCRASQSISSWLAWYQQKPGKAPKLLIYKASSLESGVPSRFSGSGSGTEFTLTISSLQPDDFASYYCQQCKGYPYTFGQGTKLEIKR
notes: also called antibody secreted by the 37B7 subculture

Tests used:
[1] = target: hCMV envelope glycoprotein B (gB) of hCMV strain AD169 (hCMV strain AD169, UniProt P06473 32-906); experiment: cell-based or functional assay
[2] = target: hCMV envelope glycoprotein B (gB) of hCMV strain VR1814 (hCMV strain VR1814); experiment: cell-based or functional assay
[3] = target: T1, recombinant autologous interstrain fusion antigen CG3 (hCMV strain AD169; hCMV strain Towne, UniProt P06473 27-84; P13201 27-84); experiment: ELISA of the subculture supernatant on the gB recombinant antigen (CG3)
T1 construct: domain: gB Antigenic Domain 2 (AD2); Antigen of the commercial gB(AD2) ELISA (Biotest, Cat. No. 807035; Rothe M et al., 2001); also called CG3 antigen; gB(AD2)

| Binder | hCMV neutralizing activity, dose-response, HELF cells with hCMV strain AD169 (1,000 PFU/reaction), IC50 [1] | hCMV neutralizing activity, dose-response, HUVEC cells with hCMV strain VR1814 (1,000 PFU/reaction), IC50 [2] | binding result [3] |
| --- | --- | --- | --- |
| B1 | 0.82 µg/mL | 0.67 µg/mL | – |
| B2 | – | – | no binding |
